Results as given in US20260116991A1 (HAINAN SIMCERE ZAIMING PHARMACEUTICAL, published 2026).
Positions count from the first letter of the chain named. Each block holds one binder with its values, some of them ahead of it.

Biological target: T1, murine GPC3-his protein (Sino Biological, Cat. No. 50989-M08B) (murine, UniProt Q8CFZ4 25-558)
T1 construct: Bought protein; also called murine GPC3 protein
Test: ELISA, coated murine GPC3-His;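 also: antigen coated on plates at 1 µg/mL, test antibody bound for 2 h at 37 °C, detected with HRP-conjugated secondary antibody and TMB substrate after acid stop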
Protocol: The specific method is described as follows: The antigen protein was diluted with PBS to a final concentration of 1 μg/mL, and the diluent was added to a 96-well ELISA plate at 50 μL/well. The plate was sealed with a plastic film and incubated at 4° C. overnight, washed twice with PBS the next day, and a blocking solution [PBS+2% (w/w) BSA] was added for blocking at room temperature for 2 h. […] After incubation at 37° C. for 2 h, the plate was washed 3 times with PBS. A horseradish peroxidase (HRP)-labeled secondary antibody (purchased from Merck, Cat. No. AP113P) was added for incubation at 37° C. for 1 h, and the plate was washed 5 times with PBS. A TMB substrate was added at 50 μL/well for incubation at room temperature for 10 min, then a stop solution (1.0M HCl) was added at 50 μL/well. An ELISA plate reader (Multimode Plate Reader, EnSight, purchased from Perkin Elmer) was used to read OD_{450 nm} values, with results as shown in Table 4 to Table 6, FIG. 1A, FIG. 1B, and FIG. 1C.

T1 sequence (Q8CFZ4 25-558 limits assumed): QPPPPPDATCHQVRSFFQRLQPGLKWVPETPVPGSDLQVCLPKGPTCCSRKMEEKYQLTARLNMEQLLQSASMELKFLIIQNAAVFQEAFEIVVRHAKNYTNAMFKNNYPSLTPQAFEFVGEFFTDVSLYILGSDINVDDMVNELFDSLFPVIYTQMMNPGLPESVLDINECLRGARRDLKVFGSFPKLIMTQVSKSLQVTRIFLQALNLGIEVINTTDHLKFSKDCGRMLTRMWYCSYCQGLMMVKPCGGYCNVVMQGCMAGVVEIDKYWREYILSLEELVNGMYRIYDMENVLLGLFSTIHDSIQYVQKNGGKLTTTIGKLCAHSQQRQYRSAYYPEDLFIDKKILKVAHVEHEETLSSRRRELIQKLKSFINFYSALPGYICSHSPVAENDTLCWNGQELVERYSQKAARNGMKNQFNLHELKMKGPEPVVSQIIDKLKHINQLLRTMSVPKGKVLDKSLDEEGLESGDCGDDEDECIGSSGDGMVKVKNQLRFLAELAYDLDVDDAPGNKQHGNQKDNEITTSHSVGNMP

B2: F2.154.1 human-murine chimeric antibody (antibody, human IgG1, kappa, V domains shown)
VH: QVQLQQSGAELVRPGASVKLSCKASGYRFTDYEMHWVKQTPVHGLEWIGTIDPETGNTAYTQKFMDKATLTADKSSSTAYMELRSLTSEDSAVYYCTRGYSFTYWGQGTLATVSA
VL: DVLMTQTPLSLPVSLGDQASISCRSSQNIVHSNGNTYLQWYLQKPGQSPKLLIFKVSNRFSGVPDRFSGSGSGTDFTLKISRVEAEDLGVYYCFQGSHVPFTFGTGTKLEIKR
OD450 at 0.0001 nM antibody: 0.05 OD450 nm
OD450 at 0.001 nM antibody: 0.05 OD450 nm
OD450 at 0.01 nM antibody: 0.05 OD450 nm
OD450 at 0.1 nM antibody: 0.05 OD450 nm
OD450 at 1 nM antibody: 0.05 OD450 nm
OD450 at 10 nM antibody: 0.05 OD450 nm
OD450 at 100 nM antibody: 0.06 OD450 nm

B4: F2.152.3 human-murine chimeric antibody (antibody, human IgG1, kappa, V domains shown)
VH: EVQLQQSGPELVKPGASVKMSCKASGYTFTDYYMTWVKQSHGKSLEWIGRVNPRNGDTTYNQKFEGRATLTLDKSLSTAFMQLNSLTSEDSAVYYCINSKGHFDYWGQGTTLTVSS
VL: B2 VL with N28S, Q39E, Y41F, L51S, F54Y, F101P, T105A, I111L
OD450 at 0.0001 nM antibody: 0.05 OD450 nm
OD450 at 0.001 nM antibody: 0.12 OD450 nm
OD450 at 0.01 nM antibody: 0.67 OD450 nm
OD450 at 0.1 nM antibody: 1.94 OD450 nm
OD450 at 1 nM antibody: 2.54 OD450 nm
OD450 at 10 nM antibody: 2.53 OD450 nm
OD450 at 100 nM antibody: 2.47 OD450 nm

B7: F2.169.2 human-murine chimeric antibody (antibody, human IgG1, kappa, V domains shown)
VH: EVQLVETGGGLVQPKGSLKLSCAASGFSFNTNAMNWVRQAPGKGLEWVARIRSKSNNYATYYADSVKDRFTISRDDSQSMLYLQMNNLKTEDTAMYYCVRDGYYVLFAYWGQGTLVTVSA
VL: B2 VL with S25F, N28S, H31N, Q39E, Y41F, F54Y
OD450 at 0.0001 nM antibody: 0.05 OD450 nm
OD450 at 0.001 nM antibody: 0.09 OD450 nm
OD450 at 0.01 nM antibody: 0.38 OD450 nm
OD450 at 0.1 nM antibody: 1.68 OD450 nm
OD450 at 1 nM antibody: 2.49 OD450 nm
OD450 at 10 nM antibody: 2.72 OD450 nm
OD450 at 100 nM antibody: 2.63 OD450 nm

B8: F1.153.1 human-murine chimeric antibody (antibody, human IgG1, kappa, V domains shown)
VH: QIQLVQSGPELKKPGETVKISCKASGYTFTTAGMQWVQKMPGKGFKWIGWINTHSGEPQYAEDFKGRFAFSLETSASTAYLQISNLKNEDTATYFCARSFYYHGSSFFYFDYWGQGTTLTVSS
VL: DIVMTQSQKFMSTTVGDRVSITCKASQNVGTAVAWYQQKPGQSPKLLIYSASNRYTGVPDRFTGSGSGADFTLTISNMQSEDLADYFCQQYSRYPLTFGAGTKLELKR
OD450 at 0.0001 nM antibody: 0.04 OD450 nm
OD450 at 0.001 nM antibody: 0.08 OD450 nm
OD450 at 0.01 nM antibody: 0.04 OD450 nm
OD450 at 0.1 nM antibody: 0.04 OD450 nm
OD450 at 1 nM antibody: 0.05 OD450 nm
OD450 at 10 nM antibody: 0.08 OD450 nm
OD450 at 100 nM antibody: 0.09 OD450 nm

Results, then the binder that gave them:

OD450 at 0.0001 nM antibody: 0.18 OD450 nm
OD450 at 0.001 nM antibody: 0.15 OD450 nm
OD450 at 0.01 nM antibody: 0.1 OD450 nm
OD450 at 0.1 nM antibody: 0.1 OD450 nm
OD450 at 1 nM antibody: 0.14 OD450 nm
OD450 at 10 nM antibody: 0.16 OD450 nm
OD450 at 100 nM antibody: 0.13 OD450 nm
B1: F4.18.4 human-murine chimeric antibody (antibody, human IgG1, kappa, V domains shown)
VH: QVQLHQSGAEMAKPGASVNLSCKTSGFTFTDYGISWVKQRTRQGLEWIGDIYPRHINIYYNEKFKDKATLTADRSSSTAYMELRSMTSEDSAVYFCARRGTTGRGALDYWGQGTSLTVSS
VL: DILLTQSPAILSVSPGERVSFSCRASQSIGTSIHWYQQRTNGSPRLLIKYAFESISGIPSRFGGSGSRTDFTLTINSVESEDIADYYCQQTYNWPYTFGGGTKLEIKR

OD450 at 0.0001 nM antibody: 0.05 OD450 nm
OD450 at 0.001 nM antibody: 0.05 OD450 nm
OD450 at 0.01 nM antibody: 0.04 OD450 nm
OD450 at 0.1 nM antibody: 0.09 OD450 nm
OD450 at 1 nM antibody: 0.05 OD450 nm
OD450 at 10 nM antibody: 0.05 OD450 nm
OD450 at 100 nM antibody: 0.08 OD450 nm
B3: F4.21.16 human-murine chimeric antibody (antibody, human IgG1, kappa, V domains shown)
VH: DVQLQESGPGLVKPSQSLSLTCSVTGYSITSGYYWNWIRQFPGNKLEWMGYISYDVTVNYNPSLKNRISITRDTSKNQFFLKLNSVTTEDTATYYCATITSVASMDHWGQGTSVTVSS
VL: B2 VL with V2I, S32R, Q39E, I53L, F54Y, V90I, V99F, T105S

OD450 at 0.0001 nM antibody: 0.06 OD450 nm
OD450 at 0.001 nM antibody: 0.06 OD450 nm
OD450 at 0.01 nM antibody: 0.05 OD450 nm
OD450 at 0.1 nM antibody: 0.04 OD450 nm
OD450 at 1 nM antibody: 0.05 OD450 nm
OD450 at 10 nM antibody: 0.06 OD450 nm
OD450 at 100 nM antibody: 0.12 OD450 nm
B5: F3.38.7 human-murine chimeric antibody (antibody, human IgG1, kappa, V domains shown)
VH: QVQLQQSGAELVRPGASVKLSCKASGYTFTDYEIHWVKQTPVLGLEWIGAIDPKTGNTAYNQKFMGKATLTADKSSTTAYMDLRSLTSEDSAVYYCTRYFSFAYWGQGTLVTVSA
VL: B2 VL with N28T, I29F, F54Y, F101Y, T105S

OD450 at 0.0001 nM antibody: 0.05 OD450 nm
OD450 at 0.001 nM antibody: 0.05 OD450 nm
OD450 at 0.01 nM antibody: 0.04 OD450 nm
OD450 at 0.1 nM antibody: 0.04 OD450 nm
OD450 at 1 nM antibody: 0.05 OD450 nm
OD450 at 10 nM antibody: 0.05 OD450 nm
OD450 at 100 nM antibody: 0.1 OD450 nm
B6: F3.81.19 human-murine chimeric antibody (antibody, human IgG1, kappa, V domains shown)
VH: B2 VH with R28T, T61N, M65K, D66G, G99P, F102L, A111V
VL: B2 VL with M4L, N28S, I29F, N35D, F54Y, F101Y, T105S
